{"source": "paper PMC5795439", "molecules": {"B1": {"name": "tetherin: tunicamycin (protein)", "parent chain": "MASTSYDYCRVPMEDGDKRCKLLLGIGILVLLIIVILGVPLIIFTIKANSEACRDGLRAVMECRNVTHLLQQELTEAQKGFQDVEAQAATCNHTVMALMASLDAEKAQGQKKVEELEGEITTLNHKLQDASAEVERLRRENQVLSVRIADKKYYPSSQDSSSAAAPQLLIVLLGLSALLQ"}, "B2": {"name": "tetherin: N65A (protein)", "parent chain": "MASTSYDYCRVPMEDGDKRCKLLLGIGILVLLIIVILGVPLIIFTIKANSEACRDGLRAVMECRNVTHLLQQELTEAQKGFQDVEAQAATCNHTVMALMASLDAEKAQGQKKVEELEGEITTLNHKLQDASAEVERLRRENQVLSVRIADKKYYPSSQDSSSAAAPQLLIVLLGLSALLQ"}, "B3": {"name": "tetherin: N65,92A (protein)", "parent chain": "MASTSYDYCRVPMEDGDKRCKLLLGIGILVLLIIVILGVPLIIFTIKANSEACRDGLRAVMECRNVTHLLQQELTEAQKGFQDVEAQAATCNHTVMALMASLDAEKAQGQKKVEELEGEITTLNHKLQDASAEVERLRRENQVLSVRIADKKYYPSSQDSSSAAAPQLLIVLLGLSALLQ"}, "B4": {"name": "tetherin: kifunensine (protein)", "parent chain": "MASTSYDYCRVPMEDGDKRCKLLLGIGILVLLIIVILGVPLIIFTIKANSEACRDGLRAVMECRNVTHLLQQELTEAQKGFQDVEAQAATCNHTVMALMASLDAEKAQGQKKVEELEGEITTLNHKLQDASAEVERLRRENQVLSVRIADKKYYPSSQDSSSAAAPQLLIVLLGLSALLQ"}, "B5": {"name": "tetherin: kifunensine (WT tetherin) (protein)", "parent chain": "MASTSYDYCRVPMEDGDKRCKLLLGIGILVLLIIVILGVPLIIFTIKANSEACRDGLRAVMECRNVTHLLQQELTEAQKGFQDVEAQAATCNHTVMALMASLDAEKAQGQKKVEELEGEITTLNHKLQDASAEVERLRRENQVLSVRIADKKYYPSSQDSSSAAAPQLLIVLLGLSALLQ"}, "B6": {"name": "tetherin: N92A (protein)", "parent chain": "MASTSYDYCRVPMEDGDKRCKLLLGIGILVLLIIVILGVPLIIFTIKANSEACRDGLRAVMECRNVTHLLQQELTEAQKGFQDVEAQAATCNHTVMALMASLDAEKAQGQKKVEELEGEITTLNHKLQDASAEVERLRRENQVLSVRIADKKYYPSSQDSSSAAAPQLLIVLLGLSALLQ"}}, "key": {"[1]": {"test": "flow cytometry, surface anti-HA, 293T", "conditions": "glycan changed form; control: untreated, same construct"}, "[2]": {"test": "virus release efficiency, p24 western blot, 293T", "conditions": "glycan changed form; control: untreated, same construct"}, "[3]": {"test": "anti-HA western blot of 293T lysates", "conditions": "glycan lost"}, "[4]": {"test": "virus release efficiency, p24 western blot, 293T"}, "[5]": {"test": "flow cytometry, surface anti-HA, 293T"}, "[6]": {"test": "flow cytometry, surface anti-tetherin, HeLa", "conditions": "glycan changed form; control: untreated HeLa"}, "[7]": {"test": "virus release efficiency, HeLa endogenous tetherin", "conditions": "glycan changed form; control: untreated HeLa"}, "[8]": {"test": "immunofluorescence microscopy, anti-tetherin, HeLa", "conditions": "glycan changed form; control: untreated HeLa"}, "[9]": {"conditions": "glycan lost, control: untreated WT tetherin"}, "[10]": {"conditions": "glycan lost, control: wild type"}, "[11]": {"conditions": "glycan changed form, control: untreated, same construct"}}, "data": [{"molecule": "tetherin: kifunensine (N65A tetherin)", "values": [{"measurement": "localisation_or_trafficking", "setting": "[1]", "value": "decreases"}, {"measurement": "other: restriction of HIV-1 release", "setting": "[2]", "value": "no change"}]}, {"molecule": "tetherin: kifunensine (N92A tetherin)", "values": [{"measurement": "localisation_or_trafficking", "setting": "[1]", "value": "decreases"}, {"measurement": "other: restriction of HIV-1 release", "setting": "[2]", "value": "no change"}]}, {"molecule": "B1", "values": [{"measurement": "expression_or_secretion", "setting": "[3]; control: untreated WT tetherin", "value": "no change"}, {"measurement": "other: restriction of HIV-1 release, fold_change", "setting": "[4]; [9]", "value": "decreases"}, {"measurement": "localisation_or_trafficking", "setting": "[5]; [9]", "value": "decreases"}]}, {"molecule": "B2", "values": [{"measurement": "expression_or_secretion", "setting": "[3]; control: wild type", "value": "no change"}, {"measurement": "other: restriction of HIV-1 release", "setting": "[4]; [10]", "value": "no change"}, {"measurement": "localisation_or_trafficking", "setting": "[5]; [10]", "value": "no change"}]}, {"molecule": "B3", "values": [{"measurement": "expression_or_secretion", "setting": "[3]; control: wild type", "value": "increases"}, {"measurement": "other: restriction of HIV-1 release", "setting": "[4]; [10]", "value": "abolishes, there was a small (25%) decrease in VRE at 0.8 μg of input DNA"}, {"measurement": "localisation_or_trafficking", "setting": "[5]; [10]", "value": "decreases"}]}, {"molecule": "B4", "values": [{"measurement": "localisation_or_trafficking", "setting": "[6]", "value": "no change"}, {"measurement": "other: restriction of HIV-1 release", "setting": "[7]", "value": "no change"}, {"measurement": "localisation_or_trafficking", "setting": "[8]", "value": "no change"}]}, {"molecule": "B5", "values": [{"measurement": "other: restriction of HIV-1 release", "setting": "[4]; [11]", "value": "no change"}, {"measurement": "localisation_or_trafficking", "setting": "[5]; [11]", "value": "decreases"}]}, {"molecule": "B6", "values": [{"measurement": "expression_or_secretion", "setting": "[3]; control: wild type", "value": "no change"}, {"measurement": "other: restriction of HIV-1 release", "setting": "[4]; [10]", "value": "no change"}, {"measurement": "localisation_or_trafficking", "setting": "[5]; [10]", "value": "no change"}]}]}
